T1: NtZFP8 (Nicotiana tabacum, UniProt A0A1S4DEM8 1-256)
T1 sequence: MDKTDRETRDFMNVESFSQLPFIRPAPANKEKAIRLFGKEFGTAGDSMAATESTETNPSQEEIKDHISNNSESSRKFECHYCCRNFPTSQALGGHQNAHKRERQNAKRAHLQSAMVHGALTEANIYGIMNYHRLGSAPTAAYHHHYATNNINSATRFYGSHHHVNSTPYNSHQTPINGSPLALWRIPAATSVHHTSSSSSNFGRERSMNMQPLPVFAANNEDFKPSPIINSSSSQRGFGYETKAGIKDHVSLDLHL

T2: AmMIXTA (Antirrhinum majus, UniProt Q38739 1-321)
T2 sequence: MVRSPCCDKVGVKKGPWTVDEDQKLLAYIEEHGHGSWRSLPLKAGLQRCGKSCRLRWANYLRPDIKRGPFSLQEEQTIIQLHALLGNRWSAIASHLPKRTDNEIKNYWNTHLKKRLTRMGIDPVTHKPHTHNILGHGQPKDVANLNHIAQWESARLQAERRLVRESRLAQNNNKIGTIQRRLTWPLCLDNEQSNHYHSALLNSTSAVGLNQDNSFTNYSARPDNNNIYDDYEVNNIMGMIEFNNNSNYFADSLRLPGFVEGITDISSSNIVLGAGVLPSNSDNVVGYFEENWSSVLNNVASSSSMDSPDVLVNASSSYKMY


Key:
NtZFP8 = biological target: T1, NtZFP8; experiment: EMSA
AmMIXTA = biological target: T2, AmMIXTA; experiment: EMSA

Row | Binder | binding result (NtZFP8) | binding result (AmMIXTA)
1 | ZFP8_EMSA_Probe (dsDNA) DNA 1: AGACGGATCCATTGCAATAAGAAGAAGAAGATCCTGTAGGAATTCGGA DNA 2: TCCGAATTCCTACAGGATCTTCTTCTTCTTATTGCAATGGATCCGTCT | binds | –
2 | MIXTA_EMSA_Probe (dsDNA) DNA 1: AGACGGATCCATTGCAATAGGTGGTGGTGGATCCTGTAGGAATTCGGA DNA 2: TCCGAATTCCTACAGGATCCACCACCACCTATTGCAATGGATCCGTCT | – | binds
